Data on 167 variants can be found in the RNAGym collection of RNA variant scans (doi:10.1073/pnas.2313332121).

The labels stand for the following.
B1: TPR t1 (parent)
chain: GACCAAUCUGCCCUCAGAGCUCGAGAACAUCUUCGGAUGCAGAGGAGGCAGGCUUCGGUGGCGCGAUAGCGCCAACGUCCUCAACCUCCAAUGCAUCCCACCACAUGAUGAUGCCUGAAGAGCCUUGGUUUUUUG

This series covers variants of B1. As to the kind of experiment: polymerase ribozyme fitness, log enrichment relative to wild type (log ratio); higher = more active; in vitro selection for triplet polymerase activity. The procedure, abridged: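 Both subunits of a heterodimeric triplet polymerase ribozyme were given their own mutant library, built by PCR and transcribed. Each library was annealed with a biotinylated primer, the partner subunit and triplets, incubated frozen at −7 °C, and its extended constructs gel-excised, captured on streptavidin beads and amplified by RT-PCR, all in one round done in triplicate. Fitness is the logarithm of genotype enrichment relative to wild-type enrichment, with replicates averaged by inverse-variance weighting. That logarithm is base 2, and Illumina-sequenced genotypes needed ≥10 input reads and ≥1 read per output.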
As for C40U A43U, the “polymerase ribozyme fitness (log ratio)” value is -1.09.
Next, C40G C72G C82U U106A: -2.01; C40G G69C C72U C89A: -3.57.
For C40U C53A C73A C104U C123G, the “polymerase ribozyme fitness (log ratio)” value is 1.24.
For C40A C89G C101A U130G, the “polymerase ribozyme fitness (log ratio)” value was -5.66.
Take C40U A41U C72U: the “polymerase ribozyme fitness (log ratio)” value is -1.91.
To C40G G58A G107U U112A G122U belongs -5.89; to C40G C56G G122A, -1.45.
C40G G57A G61U G113A A121G G122A: the “polymerase ribozyme fitness (log ratio)” value is -2.96.
Turning to C40G G63U, the “polymerase ribozyme fitness (log ratio)” value is -1.85.
As to C40G G63A, the “polymerase ribozyme fitness (log ratio)” value was -1.91.
As for C40G G71U A105U, the “polymerase ribozyme fitness (log ratio)” value is -3.41.
Next, C40A G61U: -1.59.
Take C40A G61A: the “polymerase ribozyme fitness (log ratio)” value was -0.734.
To C40U C56G C88G G93A belongs -2.89; to C40U C79A C101U, -2.1; to C40U C85A G120C, -0.223.
Next, C40U G44A C62U: -1.32.
To C40G C53G G77A U106C U116C belongs -3.58; to C40U G69C G93A U96G, -2.24.
C40A G52A C101A: the “polymerase ribozyme fitness (log ratio)” value was -3.1.
Take C40G G48A C64U C104A U109A C114A U130A: the “polymerase ribozyme fitness (log ratio)” value is -5.98.
Next, C40A G71U G110C C114A: -6.53.
Next, C40U C70G C98U A119U: -3.66.
As to C40U C72A C82G C102A G120A G122U, the “polymerase ribozyme fitness (log ratio)” value was -3.11.
Next, C40G G61C: -2.49; C40G G61U: -2.33; C40G G57C C79U G93U G117C C123A: -4.88.
Turning to C40G G52A G117A, the “polymerase ribozyme fitness (log ratio)” value is -2.65.
A41C G61A G127A: the “polymerase ribozyme fitness (log ratio)” value is -1.68.
Regarding C40U G63C A121C, the “polymerase ribozyme fitness (log ratio)” value amounted to 0.618.
Next, C40G A50U G61A C79U C85G G117U A121U U134A: -2.53.
Turning to C40A U81C, the “polymerase ribozyme fitness (log ratio)” value was -1.68.
Next, C40U C49A C89G: -2.46; C40U C76G G120C: 0.524; C40A G69C U106A C124A: -1.51.
To C40U G61C U126G belongs -4.04.
C40U U112C: the “polymerase ribozyme fitness (log ratio)” value came out at 1.25.
To C40U U112A belongs 0.76; to C40U U112G, 0.138.
Next, C40U C53A G60A G69U: -0.0565; C40G C49A G77A C115A: -2.4.
To C40G U81A belongs -2.17; to C40U A41G G44A U59G G60U U112A, 0.462.
For the variant A41C G61U, the “polymerase ribozyme fitness (log ratio)” value is -0.204.
Next, C40U U55C C70A U96A: -3.02.
Next, C40U G61C C72U C88A: -1.95; A41C C104A G122A: -3.8; C40U G57C G58A U116G: -3.95.
To A41C C89A G93U C101U G113U belongs -6.26; to C40G C123U, 0.0444; to C40G C123G, 0.299.
For C40U G48U C62G, the “polymerase ribozyme fitness (log ratio)” value was -3.32.
To C40U G63C A74C U131A belongs -2.75; to C40U A84U G117U C123G, -1.94.
In the case of C40A G61U G93C C94G C124U, the “polymerase ribozyme fitness (log ratio)” value is -1.28.
To C40U G120A belongs 0.164.
With C40U G120U, the “polymerase ribozyme fitness (log ratio)” value was -0.132.
To C40G C85A belongs -2.32.
Next, C40U A46U A100U: -3.37.
Next, C40G C104A: -2.31; C40U C53U U78C U92A G93A A111C: -4.45; C40U G57U: -0.292.
C40U C82U A84G G107U: the “polymerase ribozyme fitness (log ratio)” value is -6.74.
Next, C40U G117U: -1.71; C40G G51U U87A A90G G117U: -5.66.
On to C40A G63A C79A C86A C104A C114U, for which the “polymerase ribozyme fitness (log ratio)” value is -7.08.
For A41C C114A, the “polymerase ribozyme fitness (log ratio)” value is -2.37.
Next, A41C G51U: -3.29.
Next, C40G U55A G63U C124U: 0.229.
For the variant C40A G77C, the “polymerase ribozyme fitness (log ratio)” value is -1.98.
Next, C40A G77A: -1.33; C40A G71A U125A: -2.51.
As for C40U C98G, the “polymerase ribozyme fitness (log ratio)” value is -6.34.
On to C40U U67C G71U C89U U109A G117C A121U G128A U134A, for which the “polymerase ribozyme fitness (log ratio)” value was -5.54.
Next, C40A G63U U81A U129A: -5.05; C40G C56G: -1.42; C40G U92G G120A: -2.62.
Next, C40G U55G C62U U78G: -2.04; C40A G57A: -3.1; C40U C56A C73U C82G C97U C115U: -4.44.
To C40G A43U U59A C70A C114A G117U belongs -6.29.
As for C40G C104A C124G, the “polymerase ribozyme fitness (log ratio)” value amounted to 0.0636.
Consider A41C G48A G60U G135U, for which the “polymerase ribozyme fitness (log ratio)” value is -2.21.
Next, C40G G48U U92A: -4.05; A41C A83U: -1.29.
For the variant C40U U55C, the “polymerase ribozyme fitness (log ratio)” value is -0.711.
For the variant C40G G52A, the “polymerase ribozyme fitness (log ratio)” value is -0.59.
Next, C40U G42A G122U C123A: -1.77.
C40G C56A G57U C70A C72U G77A: the “polymerase ribozyme fitness (log ratio)” value is -4.22.
A41C C104G G107U G110U: the “polymerase ribozyme fitness (log ratio)” value is -7.15.
For the variant C40U G61C U129A, the “polymerase ribozyme fitness (log ratio)” value is -3.93.
To C40U C73U G93U U130G belongs -2.36.
Next, C40G G107A: -6.63.
Turning to C40U G60U C94A C101G U106A, the “polymerase ribozyme fitness (log ratio)” value is -1.22.
To C40U C62G A111G belongs -2.32; to A41C G44A G58C G93C, -1.87; to C40G A100U C101A, -3.4.
On to C40A G51A U78C C124A, for which the “polymerase ribozyme fitness (log ratio)” value is -3.18.
Regarding C40A G60A G61A U112A, the “polymerase ribozyme fitness (log ratio)” value is -3.
For C40U C73A C101U, the “polymerase ribozyme fitness (log ratio)” value was -0.192.
Consider C40U G52A C53U C124A, for which the “polymerase ribozyme fitness (log ratio)” value came to 0.594.
Turning to C40U A43G U130A, the “polymerase ribozyme fitness (log ratio)” value was -3.26.
To C40U G63C C80U belongs -1.53; to C40U A90C U132A, -1.85; to C40U G71C, -1.58.
In the case of C40U C85A G113C, the “polymerase ribozyme fitness (log ratio)” value was -3.42.
C40U C94U G128U: the “polymerase ribozyme fitness (log ratio)” value was -4.33.
To C40G C72U G127C belongs -2.34; to C40U C62U C73G C85G, -5.15.
To C40A C94G G120A U129A belongs -3.13; to C40U C56A, -0.555; to C40G A100U U133G, -4.07.
To C40A G44A U78C belongs -2.1.
On to C40A G45U G63A G69C C82A C86G C101U C114G, for which the “polymerase ribozyme fitness (log ratio)” value was -6.64.
To C40A C94G C97U G113U belongs -7.66; to C40G C62U G93C G128U, -1.46; to C40U G93A U96G, -0.786.
To C40G A46G C64U belongs -1.62; to A41C C124G, 0.528; to C40G C72U U78C, -1.15.
For C40U C97A, the “polymerase ribozyme fitness (log ratio)” value was -5.23.
Regarding C40G G42A U59A A95G C123G, the “polymerase ribozyme fitness (log ratio)” value was -2.1.
With C40U G107U, the “polymerase ribozyme fitness (log ratio)” value was -6.46.
In the case of C40G C89G, the “polymerase ribozyme fitness (log ratio)” value is -2.85.
Next, C40U C62A: -1.61.
Next, C40U C53G A75G G117A: -2.56.
Regarding C40U G44A, the “polymerase ribozyme fitness (log ratio)” value is -0.755.
To A41C C123A G128U belongs -2.19; to C40U G113C, -2.55; to C40A G61C C79G, -3.56.
With A41C G58A, the “polymerase ribozyme fitness (log ratio)” value is -0.278.
Next, C40U C56G A84C C88A U109A: -7.02.
As to C40G C64U C85A U112C, the “polymerase ribozyme fitness (log ratio)” value is -0.298.
On to C40G C79U, for which the “polymerase ribozyme fitness (log ratio)” value was -1.27.
With C40G C79A, the “polymerase ribozyme fitness (log ratio)” value is -2.58.
Regarding C40G C53U C94G G107U C124U U125G, the “polymerase ribozyme fitness (log ratio)” value is -7.6.
To C40U C70A C102A C124A belongs -3.93.
For the variant C40U G47U U109A U129G, the “polymerase ribozyme fitness (log ratio)” value was -7.79.
C40A G52A G58A C62U A119U U126A: the “polymerase ribozyme fitness (log ratio)” value was -4.
As for C40U G42U, the “polymerase ribozyme fitness (log ratio)” value was -1.7.
Take C40U G42C: the “polymerase ribozyme fitness (log ratio)” value is -2.23.
Next, C40U G52C G93A: -1.38; C40U G69A C99A C114G: -8.02; C40U A50G U130C: -0.13.
Turning to C40U G47A G48C G93A G122A, the “polymerase ribozyme fitness (log ratio)” value was -1.34.
Take C40G C86G: the “polymerase ribozyme fitness (log ratio)” value was -2.86.
To C40U C73G belongs -0.891.
Regarding C40G G57U G63C A91C, the “polymerase ribozyme fitness (log ratio)” value is -3.66.
On to C40A C104U G110U A111U C123G U125G, for which the “polymerase ribozyme fitness (log ratio)” value is -6.57.
Next, C40U A95C: -1.45.
Next, C40G U54A G61C A100U: -4.7.
With C40G G117U, the “polymerase ribozyme fitness (log ratio)” value was -3.26.
Next, C40U A46G C64U A84C: -1.65; C40G G45U A90U G93U: -4.32.
To C40A G60A belongs -1.03; to C40A G60C, -3.13; to A41C C80U, -1.79.
Consider C40U C49A C79U G113U U125C, for which the “polymerase ribozyme fitness (log ratio)” value was -4.03.
To C40A G61A C80U belongs -2.91; to C40U C56A C82G C97U C115U U132C, -4.39; to C40G C72G, -1.56.
To C40A G71U C115G C123G belongs -5.05; to C40G G45A U78C G113U G135A, -4.25; to C40A G44C C49G U54A G71A C99U U109A C115U U130G, -6.71.
Next, C40U A84C: -0.985; C40U C53U C72A C97U: -0.251.
